B1: human calcium channel α2δ-4 subunit (other)
chain: MAVALGTRRRDRVKLWADTFGGDLYNTVTKYSGSLLLQKKYKDVESSLKIEEVDGLELVRKFSEDMENMLRRKVEAVQNLVEAAEEADLNHEFNESLVFDYYNSVLINERDEKGNFVELGAEFLLESNAHFSNLPVNTSISSVQLPTNVYNKDPDILNGVYMSEALNAVFVENFQRDPTLTWQYFGSATGFFRIYPGIKWTPDENGVITFDCRNRGWYIQAATSPKDIVILVDVSGSMKGLRMTIAKHTITTILDTLGENDFVNIIAYNDYVHYIEPCFKGILVQADRDNREHFKLLVEELMVKGVGVVDQALREAFQILKQFQEAKQGSLCNQAIMLISDGAVEDYEPVFEKYNWPDCKVRVFTYLIGREVSFADRMKWIACNNKGYYTQISTLADTQENVMEYLHVLSRPMVINHDHDIIWTEAYMDSKLLSSQAQSLTLLTTVAMPVFSKKNETRSHGILLGVVGSDVALRELMKLAPRYKLGVHGYAFLNTNNGYILSHPDLRPLYREGKKLKPKPNYNSVDLSEVEWEDQAESLRTAMINRETGTLSMDVKVPMDKGKRVLFLTNDYFFTDISDTPFSLGAVLSRGHGEYILLGNTSVEEGLHDLLHPDLALAGDWIYCITDIDPDHRKLSQLEAMIRFLTRKDPDLECDEELVREVLFDAVVTAPMEAYWTALALNMSEESEHVVDMAFLGTRAGLLRSSLFVGSEKVSDRKFLTPEDEASVFTLDRFPLWYRQASEHPAGSFVFNLRWAEGPESAGEPMVVTASTAVAVTVDKRTAIAAAAGVQMKLEFLQRKFWAATRQCSTVDGPYTQSCEDSDLDCFVIDNNGFILISKRSRETGRFLGEVDGAVLTQLLSMGVFSQVTMYDYQAMCKPSSHHHSAAQPLVSPISAFLTATRWLLQELVLFLLEWSVWGSWYDRGAEAKSVFHHSHKHKKQDPLQPCDTEYPVFVYQPAIREANGIVECGPCQKVFVVQQIPNSNLLLLVTDPTCDCSIFPPVLQEATEVKYNASVKCDRMRSQKLRRRPDSCHAFHPEVRVEADRGWAGFSSPNPLCLGLCPCRQEHIGMPMNTPVPVLLGGNIRVYAL
B2: human calcium channel α2δ-4 subunit tagged with HA epitope (other, not shown: small tags and cut ends)
chain: B1 chain
notes: Expressed by transient co-transfection with CaV1.2 (α1C) and β3 in HEK293 cells and tested in detergent lysates; also called α2δ-4(HA)

What was measured:
[1] = target: CaV1.2 (α1C) L-type calcium channel subunit; experiment: cell-based or functional assay
[2] = target: T1, Protein A Sepharose CL-4B (Pharmacia) (UniProt P38507 37-477); experiment: immunoprecipitation from HEK293 lysates with protein-A beads only, Western blot with anti-HA Ab
T1 construct: Used alone (without anti-CaV1.2 antibody) as the negative control of the reciprocal immunoprecipitation; also called protein-A beads
Protocol: Formation of a stable complex of α₂δ-4 with other channel subunits was tested by coimmunprecipitation. The α₂δ-4 subunit was first tagged with an HA epitope and co-transfected with CaV1.2 (α1C) and β₃ subunits into HEK cells. Co-immunoprecipitation was carried out with transient transfected HEK 293 cells by constructs of α1C, β₃ and α₂δ-4 tagged with HA epitope. Two days after the transfection, the cells (from two 150 mm plates) were harvested and washed with PBS. The cells were then resuspended in 2 ml of detergent extraction buffer: 1% (vol/vol) Nonidet P-40, 0.5% deoxycholate, 150 mM NaCl, 5 mM EDTA, 50 mM Tris-HCl (pH 8.0) and 20 μl of protease inhibitor cocktail (Sigma), followed 10 passages each through 20 and 26-gauge needles. Cell extracts were cleared by centrifugation. […] After incubated at 4° C. for overnight, the beads were precipitated by brief centrifugation, and washed 3 times with 1 ml of lysis buffer. Finally, 100 μl of 1×SDS loading buffer were added, and 20 μl were subjected to 4-20% SDS. The co-precipitated subunits were then analyzed by Western blot with indicated antibodies.

| Binder | Ca^2+ influx (fluorescence change after depolarization with 50 mM KCl) in transfected HEK 293 cells [1] [fold] | binding result [2] |
| --- | --- | --- |
| B1 | 6 |  |
| B2 |  | no binding |
